One molecule from publication PMC2926129 (Regulatory peptides, 2010) can be followed below.

The target of this assay is T1, rabbit calcitonin receptor (rabbit, UniProt P79222 23-474).
T1 sequence (looked up): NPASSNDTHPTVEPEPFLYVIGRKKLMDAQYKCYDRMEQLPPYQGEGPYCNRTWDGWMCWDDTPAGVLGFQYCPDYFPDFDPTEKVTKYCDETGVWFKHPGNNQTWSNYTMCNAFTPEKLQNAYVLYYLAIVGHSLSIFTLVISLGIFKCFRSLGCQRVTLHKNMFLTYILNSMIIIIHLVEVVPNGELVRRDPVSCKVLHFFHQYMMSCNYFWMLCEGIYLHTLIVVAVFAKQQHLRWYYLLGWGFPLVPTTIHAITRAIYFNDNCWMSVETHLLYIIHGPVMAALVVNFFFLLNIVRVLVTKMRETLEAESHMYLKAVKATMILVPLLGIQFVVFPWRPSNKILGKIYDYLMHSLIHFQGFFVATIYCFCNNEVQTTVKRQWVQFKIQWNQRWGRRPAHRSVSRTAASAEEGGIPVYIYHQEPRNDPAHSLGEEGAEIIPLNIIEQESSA
Description: radioligand binding.

Ends that are not written are not given here.

Take CGNLSTCMLGTYTQDFNKFHTFPQTAIGVGAP (ligand, UniProt P01258 85-116, looked up, ends and bridges not checked; cysteine pairing not given here) [human calcitonin]: the Ki is 0.61 nM.

As usually defined, the Ki is the dissociation constant of the complex between target and ligand, obtained from inhibition or displacement.
